Like-named read-outs stand apart in the source and are kept apart here. Ends that are not written are not given here.
How the values were obtained:
[1] = target: T1, human IL-2Rβ (CD122 protein, Fc Tag) (27-239) (human), P14784; test: pH-dependent ELISA (Examples 9-12)
T1 chain: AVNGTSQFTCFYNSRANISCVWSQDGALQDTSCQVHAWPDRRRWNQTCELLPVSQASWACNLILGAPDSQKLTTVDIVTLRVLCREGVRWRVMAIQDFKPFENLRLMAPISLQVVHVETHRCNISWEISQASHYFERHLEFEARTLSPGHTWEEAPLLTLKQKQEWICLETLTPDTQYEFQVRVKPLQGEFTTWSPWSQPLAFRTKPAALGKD

[2] = target: T1, human IL-2Rβ (CD122 protein, Fc Tag) …; test: pH-dependent ELISA (Examples 9-12)

B1: SEQ ID NO 489 (peptide)
peptide: PGVQDCXIAHXGELCEFVWN
modifications: not fully specified; X: residue not identified in the source; ends and bridges not checked
decrease in binding at pH 7.5 compared to pH 6.0 [1]: > 15% | decrease in binding at pH 7.5 compared to pH 6.0 [2]: > 50%

From patent publication US20200291066A1
